Laboratory results taken from patent US20240157023A1.

Key:
[1] = target: αvβ3 integrin on human lung fibroblasts (human) (UniProt P06756); assay: cell-based or functional assay
[2] = target: α5β1 integrin on human lung fibroblasts (human) (UniProt P08648); assay: cell-based or functional assay
Chain of UniProt P08648 (P08648 42-1049, chain 1 of 2): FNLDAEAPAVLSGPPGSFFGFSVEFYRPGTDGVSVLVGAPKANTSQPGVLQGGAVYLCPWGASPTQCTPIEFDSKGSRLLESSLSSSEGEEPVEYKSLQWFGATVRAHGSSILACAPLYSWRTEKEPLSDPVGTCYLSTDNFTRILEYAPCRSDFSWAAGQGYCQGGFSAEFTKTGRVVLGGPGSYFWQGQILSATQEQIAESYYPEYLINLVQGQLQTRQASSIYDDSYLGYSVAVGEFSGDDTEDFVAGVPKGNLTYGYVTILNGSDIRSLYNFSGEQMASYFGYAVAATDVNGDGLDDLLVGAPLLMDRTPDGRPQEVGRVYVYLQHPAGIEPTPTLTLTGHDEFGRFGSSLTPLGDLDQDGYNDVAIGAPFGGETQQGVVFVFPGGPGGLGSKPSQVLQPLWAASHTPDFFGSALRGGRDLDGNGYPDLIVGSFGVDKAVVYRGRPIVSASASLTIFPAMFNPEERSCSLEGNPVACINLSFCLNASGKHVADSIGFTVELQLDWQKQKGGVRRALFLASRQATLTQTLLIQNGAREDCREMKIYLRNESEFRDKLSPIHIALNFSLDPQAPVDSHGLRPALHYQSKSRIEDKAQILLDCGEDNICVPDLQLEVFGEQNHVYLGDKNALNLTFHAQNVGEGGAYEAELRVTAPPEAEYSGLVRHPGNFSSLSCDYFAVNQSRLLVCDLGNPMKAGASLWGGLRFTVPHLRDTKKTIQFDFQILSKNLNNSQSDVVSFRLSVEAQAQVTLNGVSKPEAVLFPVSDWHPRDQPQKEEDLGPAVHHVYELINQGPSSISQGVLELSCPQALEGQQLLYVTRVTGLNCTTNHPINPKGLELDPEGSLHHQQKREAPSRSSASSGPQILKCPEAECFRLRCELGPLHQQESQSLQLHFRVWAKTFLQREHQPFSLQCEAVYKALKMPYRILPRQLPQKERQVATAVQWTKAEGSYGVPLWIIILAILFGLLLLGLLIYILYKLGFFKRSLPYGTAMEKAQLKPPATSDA
Chain of UniProt P08648 (P05556 21-798, chain 2 of 2, further chain): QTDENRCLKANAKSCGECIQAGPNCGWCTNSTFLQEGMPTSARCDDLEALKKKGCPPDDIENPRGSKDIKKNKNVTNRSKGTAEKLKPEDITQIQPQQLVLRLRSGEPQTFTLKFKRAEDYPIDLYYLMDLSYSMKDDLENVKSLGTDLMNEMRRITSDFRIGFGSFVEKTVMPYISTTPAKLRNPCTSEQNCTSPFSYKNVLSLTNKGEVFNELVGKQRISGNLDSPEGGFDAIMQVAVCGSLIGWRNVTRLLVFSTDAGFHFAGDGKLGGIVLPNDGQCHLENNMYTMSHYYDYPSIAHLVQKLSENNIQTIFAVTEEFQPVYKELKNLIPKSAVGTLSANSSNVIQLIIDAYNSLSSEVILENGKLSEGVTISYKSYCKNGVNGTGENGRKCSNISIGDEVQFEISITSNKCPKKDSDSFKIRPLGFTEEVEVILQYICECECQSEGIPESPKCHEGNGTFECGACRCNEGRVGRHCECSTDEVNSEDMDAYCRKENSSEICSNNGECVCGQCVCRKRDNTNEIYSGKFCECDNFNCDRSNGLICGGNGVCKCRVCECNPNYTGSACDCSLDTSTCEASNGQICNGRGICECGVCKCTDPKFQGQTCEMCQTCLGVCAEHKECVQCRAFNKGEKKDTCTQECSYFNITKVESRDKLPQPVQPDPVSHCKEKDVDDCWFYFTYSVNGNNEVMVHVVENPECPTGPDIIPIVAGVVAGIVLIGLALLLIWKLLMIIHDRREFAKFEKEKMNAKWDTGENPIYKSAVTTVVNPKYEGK

Chain of UniProt P06756 (P06756 31-1048, chain 1 of 2): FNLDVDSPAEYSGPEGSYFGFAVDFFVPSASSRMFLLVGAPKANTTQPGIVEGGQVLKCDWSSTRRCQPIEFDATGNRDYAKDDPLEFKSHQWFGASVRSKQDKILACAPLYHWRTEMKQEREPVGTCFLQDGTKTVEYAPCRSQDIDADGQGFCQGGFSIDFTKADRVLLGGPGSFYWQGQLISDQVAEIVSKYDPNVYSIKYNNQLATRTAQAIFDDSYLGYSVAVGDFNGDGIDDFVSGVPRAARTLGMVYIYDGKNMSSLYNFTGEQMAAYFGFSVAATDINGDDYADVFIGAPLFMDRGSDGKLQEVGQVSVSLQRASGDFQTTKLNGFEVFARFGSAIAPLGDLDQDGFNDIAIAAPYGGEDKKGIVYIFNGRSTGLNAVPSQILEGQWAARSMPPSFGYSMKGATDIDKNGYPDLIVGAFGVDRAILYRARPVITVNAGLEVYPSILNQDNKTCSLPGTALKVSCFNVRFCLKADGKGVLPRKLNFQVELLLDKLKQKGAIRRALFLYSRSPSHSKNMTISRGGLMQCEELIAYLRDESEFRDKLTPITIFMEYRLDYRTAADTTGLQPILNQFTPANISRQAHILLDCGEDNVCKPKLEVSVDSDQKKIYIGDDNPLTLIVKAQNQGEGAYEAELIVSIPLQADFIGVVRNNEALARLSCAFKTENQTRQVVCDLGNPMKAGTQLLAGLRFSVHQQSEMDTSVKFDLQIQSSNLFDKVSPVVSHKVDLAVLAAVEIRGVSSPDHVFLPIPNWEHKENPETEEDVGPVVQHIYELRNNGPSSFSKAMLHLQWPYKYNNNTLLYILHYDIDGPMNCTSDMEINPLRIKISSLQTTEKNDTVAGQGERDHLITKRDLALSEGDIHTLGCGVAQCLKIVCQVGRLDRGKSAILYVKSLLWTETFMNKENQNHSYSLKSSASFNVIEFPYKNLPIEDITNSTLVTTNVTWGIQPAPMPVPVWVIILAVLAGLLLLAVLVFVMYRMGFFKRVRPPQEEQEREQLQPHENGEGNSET
Chain of UniProt P06756 (P05106 27-788, chain 2 of 2, further chain): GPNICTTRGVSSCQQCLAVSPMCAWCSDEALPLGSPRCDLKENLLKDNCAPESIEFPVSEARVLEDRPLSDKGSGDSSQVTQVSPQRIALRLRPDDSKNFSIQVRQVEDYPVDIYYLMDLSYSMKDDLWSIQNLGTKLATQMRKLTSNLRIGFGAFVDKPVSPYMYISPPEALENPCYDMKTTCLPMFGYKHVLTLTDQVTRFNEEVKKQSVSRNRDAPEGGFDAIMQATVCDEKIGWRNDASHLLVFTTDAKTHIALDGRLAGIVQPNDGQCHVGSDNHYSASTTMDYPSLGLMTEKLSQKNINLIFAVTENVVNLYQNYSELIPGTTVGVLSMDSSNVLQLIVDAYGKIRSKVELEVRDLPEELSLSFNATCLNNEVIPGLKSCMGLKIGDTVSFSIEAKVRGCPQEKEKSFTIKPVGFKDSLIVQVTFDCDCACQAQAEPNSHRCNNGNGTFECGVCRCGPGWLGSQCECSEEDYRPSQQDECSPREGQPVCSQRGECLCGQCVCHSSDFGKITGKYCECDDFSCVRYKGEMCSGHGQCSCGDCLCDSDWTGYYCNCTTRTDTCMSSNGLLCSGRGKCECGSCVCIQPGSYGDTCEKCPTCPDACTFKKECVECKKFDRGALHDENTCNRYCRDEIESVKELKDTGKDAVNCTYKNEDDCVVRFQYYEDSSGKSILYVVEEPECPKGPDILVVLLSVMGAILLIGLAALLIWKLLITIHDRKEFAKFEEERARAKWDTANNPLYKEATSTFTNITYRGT

Row | fibroblast spread area on soft elastic Fn4G hydrogels (3 days) [1] | average fibroblast spread area on Fn9*10 hydrogels (all stiffness and viscoelasticity groups, 3 days) [2] | Substance
1 | 2060 µm^2 |  | Fn4G (recombinant fibronectin fragment of FnIII9 and FnIII10 with four glycine residues inserted in the linker region between them) (ligand)
2 |  | 780 µm^2 | Fn9*10 (recombinant fibronectin fragment of FnIII9 and FnIII10 with a leucine to proline point mutation at position 1408) (ligand)
